{
  "source": "paper doi:10.1101/2021.04.29.441998",
  "about": "(bioRxiv, 2021)",
  "key": {"[1]": {"biological_target": "T1, Melbournevirus histone doublet MV-H2B-H2A (MEL_369) (Melbournevirus, UniProt A0A097I2B5 1-269)", "T1 sequence (looked up)": "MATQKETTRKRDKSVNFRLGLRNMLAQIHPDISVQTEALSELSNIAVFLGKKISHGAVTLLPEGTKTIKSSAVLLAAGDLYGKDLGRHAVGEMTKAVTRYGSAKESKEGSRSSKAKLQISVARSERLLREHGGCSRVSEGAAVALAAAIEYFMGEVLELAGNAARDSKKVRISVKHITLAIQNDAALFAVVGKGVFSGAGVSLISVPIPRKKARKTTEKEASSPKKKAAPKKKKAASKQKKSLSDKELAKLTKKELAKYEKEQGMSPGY", "assay": "cryo-EM structure"}, "[2]": {"biological_target": "the molecule itself", "assay": "cryo-EM structure"}},
  "data": [
    {"binder": "Melbournevirus histone doublet MV-H4-H3 (MEL_368) (natural protein, UniProt A0A097I2D0 1-216, looked up) MSKAGKKVKAQQHGHLADHVSVGETQIPKASTQHLLRKAGSLSAAGDTEVPIRGFVHMKLHKLVQKSLLAMQLAKRKTIMKSDVKKAAELMHLPVFAIPTKDSGAKGSVFLSCRQKGAGSAGTGSETNSQEVRSQMKSTCLIIPKERFRTMAKEISKKEGHDVHIAEAALDMLQVIVESCTVRLLEKALVITYSGKRTRVTSKDIETAFMLEHGPL", "values": [
      {"measurement": "binding result", "setting": "[1]", "result": "binds"},
      {"measurement": "binding result", "setting": "[2]", "result": "binds"}
    ]}
  ]
}
